The text below walks through data of patent US20220289850 (published 2022).

The experiment deals with T1, human integrin avb8 (human).
T1 chain 1: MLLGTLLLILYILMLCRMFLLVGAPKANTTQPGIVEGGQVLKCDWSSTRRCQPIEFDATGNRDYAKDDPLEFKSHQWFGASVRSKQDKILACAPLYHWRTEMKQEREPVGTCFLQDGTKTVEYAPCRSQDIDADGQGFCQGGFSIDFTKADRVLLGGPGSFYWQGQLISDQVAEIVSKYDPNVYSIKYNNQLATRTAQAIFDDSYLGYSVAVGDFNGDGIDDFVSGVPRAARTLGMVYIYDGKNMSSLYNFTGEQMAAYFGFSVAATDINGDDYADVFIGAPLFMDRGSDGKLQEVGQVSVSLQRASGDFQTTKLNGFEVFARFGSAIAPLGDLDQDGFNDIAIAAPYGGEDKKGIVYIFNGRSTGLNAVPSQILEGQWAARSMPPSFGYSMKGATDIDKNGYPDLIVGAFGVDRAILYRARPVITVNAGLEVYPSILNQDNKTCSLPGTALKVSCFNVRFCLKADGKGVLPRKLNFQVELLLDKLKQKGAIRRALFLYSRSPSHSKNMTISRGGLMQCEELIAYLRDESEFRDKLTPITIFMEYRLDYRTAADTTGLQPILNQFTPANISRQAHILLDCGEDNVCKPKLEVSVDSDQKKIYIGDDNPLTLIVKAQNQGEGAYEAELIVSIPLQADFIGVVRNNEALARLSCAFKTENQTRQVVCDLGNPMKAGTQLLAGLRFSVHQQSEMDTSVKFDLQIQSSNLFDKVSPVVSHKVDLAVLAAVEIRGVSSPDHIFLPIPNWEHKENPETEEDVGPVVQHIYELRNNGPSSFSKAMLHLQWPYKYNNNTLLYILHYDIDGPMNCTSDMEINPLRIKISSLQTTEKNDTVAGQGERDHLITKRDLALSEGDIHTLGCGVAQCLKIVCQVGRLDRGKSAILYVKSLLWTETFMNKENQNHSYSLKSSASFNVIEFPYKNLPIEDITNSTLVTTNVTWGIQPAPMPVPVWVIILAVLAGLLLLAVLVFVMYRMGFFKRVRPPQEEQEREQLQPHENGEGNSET
T1 chain 2: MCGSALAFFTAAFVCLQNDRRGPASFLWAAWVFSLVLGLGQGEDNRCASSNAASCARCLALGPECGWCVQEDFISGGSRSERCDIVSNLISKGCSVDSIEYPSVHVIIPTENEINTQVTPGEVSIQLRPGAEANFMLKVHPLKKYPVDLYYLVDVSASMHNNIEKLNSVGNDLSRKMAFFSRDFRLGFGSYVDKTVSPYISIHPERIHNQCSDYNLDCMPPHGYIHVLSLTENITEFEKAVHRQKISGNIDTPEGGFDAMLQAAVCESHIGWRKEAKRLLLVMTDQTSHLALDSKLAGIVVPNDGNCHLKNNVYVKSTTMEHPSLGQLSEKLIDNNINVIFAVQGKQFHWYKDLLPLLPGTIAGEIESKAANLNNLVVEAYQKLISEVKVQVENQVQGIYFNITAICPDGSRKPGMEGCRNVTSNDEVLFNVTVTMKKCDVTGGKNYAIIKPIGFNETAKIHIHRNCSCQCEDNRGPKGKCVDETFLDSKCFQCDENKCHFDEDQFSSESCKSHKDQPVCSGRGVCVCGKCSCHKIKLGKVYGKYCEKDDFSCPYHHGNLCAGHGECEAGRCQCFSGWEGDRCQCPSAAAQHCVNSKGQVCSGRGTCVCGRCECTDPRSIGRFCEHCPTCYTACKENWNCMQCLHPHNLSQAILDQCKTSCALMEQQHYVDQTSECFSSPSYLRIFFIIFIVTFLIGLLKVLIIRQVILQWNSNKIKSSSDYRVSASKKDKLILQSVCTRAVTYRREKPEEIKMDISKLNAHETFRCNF
As to the kind of experiment: SPR. (SPR reads the build-up and loss of mass on a sensor chip optically.)

B1: ADWA11 2.4 Fab (antibody, V domains shown)
VH: EVQLVESGGGLVQPGGSLRLSCAASGFNIKDYYMNWVRQAPGKGLEWVGWIDPDQGNTIYEPKFQGRFTISADTSKNSAYLQMNSLRAEDTAVYYCARRLLMDYWGQGTLVTVSS
VL: DIQMTQSPSSLSASVGDRVTITCRSTKSLSHFNGNTYLFWYQQKPGKAPKRLIYYMSSLASGVPSRFSGSGSGTDFTLTISSLQPEDFATYYCQQSLEYPFTFGGGTKVEIK
One may read the Kd as the free concentration of one partner at which half of the binding sites on the other are occupied at equilibrium, for simple one-to-one binding. As for B1, the Kd was less than 0.1 nM.
